target: HLA-A*0201 loaded with the Carcinoembryonic antigen (CEA)-derived … peptide (biotinylated on the C-terminal biotinylation tag); assay: SPR (Biacore), Example 4

Kd | koff | Binder
≤ 1000 nM | ≤ 2 s⁻¹ | SEQ ID NO 40 (receptor) MGHLPKPTLWAEPGSVITQGRPVTLRCQGGQETQEYRLYREKKTAPWITRIPQELVKKGQFPIPSITWEHAGRYRCYYGSDTAGRSESSDPLELVVTGVYIKPTLSAQPSPVVNSGGNVTLQCDSQVAFDGFILCKEGEDEHPQCLNSQPHARGSSRAIFSVGPVSPSRRWWYRCYAYDSNSPYEWSLPSDLLELLVL
≤ 1000 nM | ≤ 2 s⁻¹ | SEQ ID NO 48 (receptor) MGHLPKPTLWAEPGSVITQGSPVTLRCQGGQETQEYRLYREKKTAPWITRIPQELVKKGQFPIPSITWEHAGRYRCQGVSQTAGRSESSDPLELVVTGVYIKPTLSAQPSPVVNSGGNVTLQCDSQVAFDGFILCKEGEDEHPQCLNSQPHARGSSRAIFSVGPVSPSRRWWYRCYAYDSNSPYEWSLPSDLLELLVL
≤ 1000 nM | ≤ 2 s⁻¹ | SEQ ID NO 41 (receptor) MGHLPKPTLWAEPGSVITVGQPVTLRCQGGQETQEYRLYREKKTAPWITRIPQELVKKGQFPIPSITWEHAGRYRCYYGSDTAGRSESSDPLELVVTGVYIKPTLSAQPSPVVNSGGNVTLQCDSQVAFDGFILCKEGEDEHPQCLNSQPHARGSSRAIFSVGPVSPGRRWWYRCYAYDSNSPYEWSLPSDLLELLVL
≤ 1000 nM | ≤ 2 s⁻¹ | SEQ ID NO 49 (receptor) MGHLPKPTLWAEPGSVITQGSPVTLRCQGGQETQEYRLYREKKTAPQITRIPQELVKKGQFPIPSITWEHAGRYRCYYGSDTAGRSESSDPLELVVTGVYVAPTLSAQPSPVVNSGGNVTLQCDSQVAFDGFILCKEGEDEHPQCLNSQPHARGSSRAIFSVGPVSPGRRWWYRCYAYDSNSPYEWSLPSDLLELLVL
≤ 1000 nM | ≤ 2 s⁻¹ | SEQ ID NO 47 (receptor) MGHLPKPTLWAEPGSVITQGSPVTLRCQGGQETQEYRLYREKKTAPWITRIPQELVKKGQFPIPSITWEHAGRYRCYYGGQEGARSESSDPLELVVTGVYIKPTLSAQPSPVVNSGGNVTLQCDSQVAFDGFILCKEGEDEHPQCLNSQPHARGSSRAIFSVGPVSPSRRWWYRCYAYDSNSPYEWSLPSDLLELLVL
≤ 1000 nM | ≤ 2 s⁻¹ | SEQ ID NO 44 (receptor) MGHLPKPTLWAEPGSVITQGSPVTLRCQGGQETQEYRLYREKKTAPWITRIPQELVKKGQFPIPSVTWEHAGRYRCYYGSDTAGRSESSDPLELVVTGVYIKPTLSAQPSPVVNSGGNVTLQCDSQVAFDGFILCKEGEDEHPQCLNSQPHARGSSRAIFSVGPVSPSRRWWYRCYAYDSNSPYEWSLPSDLLELLVL
≤ 1000 nM | ≤ 2 s⁻¹ | SEQ ID NO 43 (receptor) MGHLPKPTLWAEPGSVITQGSPVTLRCQGGQETQEYRLYREKKTAPWITRIPQELVKKGQFPIPSITWEHAGRYRCYYGSDTAGRSESSDPLELVVTGVYIKPTLSAQPSPVVNSGGNVTLQCDSQVAFDGFILCKEGEDEHPQCLNSQPHARGSSRAIFSVGPVSPGRRWWYRCYAYDSNSPYEWSLPSDLLELLVL
≤ 1000 nM | ≤ 2 s⁻¹ | SEQ ID NO 42 (receptor) MGHLPKPTLWAEPGSVITLGQPVTLRCQGGQETQEYRLYREKKTAPWITRIPQELVKKGQFPIPSITWEHAGRYRCYYGSDTAGRSESSDPLELVVTGVYIKPTLSAQPSPVVNSGGNVTLQCDSQVAFDGFILCKEGEDEHPQCLNSQPHARGSSRAIFSVGPVSPGRRWWYRCYAYDSNSPYEWSLPSDLLELLVL
≤ 1000 nM | ≤ 2 s⁻¹ | SEQ ID NO 45 (receptor) MGHLPKPTLWAEPGSVITQGSPVTLRCQGGQETQEYRLYREKKTAPWITRIPQELVKKGQFPIPSITWEHAGRYRCVGWAVTAGRSESSDPLELVVTGVYIKPTLSAQPSPVVNSGGNVTLQCDSQVAFDGFILCKEGEDEHPQCLNSQPHARGSSRAIFSVGPVSPSRRWWYRCYAYDSNSPYEWSLPSDLLELLVL
